Assay: Oxygen dissociation rates of DevS proteins, stopped flow
Assay type: binding, Mycobacterium tuberculosis

B1: DevS: full length wild-type heme sensor kinase DevS of Mycobacterium tuberculosis (protein, UniProt P9WGK3 1-578, looked up)
chain: MTTGGLVDENDGAAMRPLRHTLSQLRLHELLVEVQDRVEQIVEGRDRLDGLVEAMLVVTAGLDLEATLRAIVHSATSLVDARYGAMEVHDRQHRVLHFVYEGIDEETVRRIGHLPKGLGVIGLLIEDPKPLRLDDVSAHPASIGFPPYHPPMRTFLGVPVRVRDESFGTLYLTDKTNGQPFSDDDEVLVQALAAAAGIAVANARLYQQAKARQSWIEATRDIATELLSGTEPATVFRLVAAEALKLTAADAALVAVPVDEDMPAADVGELLVIETVGSAVASIVGRTIPVAGAVLREVFVNGIPRRVDRVDLEGLDELADAGPALLLPLRARGTVAGVVVVLSQGGPGAFTDEQLEMMAAFADQAALAWQLATSQRRMRELDVLTDRDRIARDLHDHVIQRLFAIGLALQGAVPHERNPEVQQRLSDVVDDLQDVIQEIRTTIYDLHGASQGITRLRQRIDAAVAQFADSGLRTSVQFVGPLSVVDSALADQAEAVVREAVSNAVRHAKASTLTVRVKVDDDLCIEVTDNGRGLPDEFTGSGLTNLRQRAEQAGGEFTLASVPGASGTVLRWSAPLSQ
modifications: full-length
Q: For B1, which O2 koff is on record?
A: 6.79 ± 0.33 ^b s^−1
